# B1: Complement factor H (Homo sapiens), P08603 (parent)
# chain: MRLLAKIICLMLWAICVAEDCNELPPRRNTEILTGSWSDQTYPEGTQAIYKCRPGYRSLGNVIMVCRKGEWVALNPLRKCQKRPCGHPGDTPFGTFTLTGGNVFEYGVKAVYTCNEGYQLLGEINYRECDTDGWTNDIPICEVVKCLPVTAPENGKIVSSAMEPDREYHFGQAVRFVCNSGYKIEGDEEMHCSDDGFWSKEKPKCVEISCKSPDVINGSPISQKIIYKENERFQYKCNMGYEYSERGDAVCTESGWRPLPSCEEKSCDNPYIPNGDYSPLRIKHRTGDEITYQCRNGFYPATRGNTAKCTSTGWIPAPRCTLKPCDYPDIKHGGLYHENMRRPYFPVAVGKYYSYYCDEHFETPSGSYWDHIHCTQDGWSPAVPCLRKCYFPYLENGYNQNYGRKFVQGKSIDVACHPGYALPKAQTTVTCMENGWSPTPRCIRVKTCSKSSIDIENGFISESQYTYALKEKAKYQCKLGYVTADGETSGSITCGKDGWSAQPTCIKSCDIPVFMNARTKNDFTWFKLNDTLDYECHDGYESNTGSTTGSIVCGYNGWSDLPICYERECELPKIDVHLVPDRKKDQYKVGEVLKFSCKPGFTIVGPNSVQCYHFGLSPDLPICKEQVQSCGPPPELLNGNVKEKTKEEYGHSEVVEYYCNPRFLMKGPNKIQCVDGEWTTLPVCIVEESTCGDIPELEHGWAQLSSPPYYYGDSVEFNCSESFTMIGHRSITCIHGVWTQLPQCVAIDKLKKCKSSNLIILEEHLKNKKEFDHNSNIRYRCRGKEGWIHTVCINGRWDPEVNCSMAQIQLCPPPPQIPNSHNMTTTLNYRDGEKVSVLCQENYLIQEGEEITCKDGRWQSIPLCVEKIPCSQPPQIEHGTINSSRSSQESYAHGTKLSYTCEGGFRISEENETTCYMGKWSSPPQCEGLPCKSPPEISHGVVAHMSDSYQYGEEVTYKCFEGFGIDGPAIAKCLGEKWSHPPSCIKTDCLSLPSFENAIPMGEKKDVYKAGEQVTYTCATYYKMDGASNVTCINSRWTGRPTCRDTSCVNPPTVQNAYIVSRQMSKYPSGERVRYQCRSPYEMFGDEEVMCLNGNWTEPPQCKDSTGKCGPPPPIDNGDITSFPLSVYAPASSVEYQCQNLYQLEGNKRITCRNGQWSEPPKCLHPCVISREIMENYNIALRWTAKQKLYSRTGESVEFVCKRGYRLSSRSHTLRTTCWDGKLEYPTCAKR
# partner: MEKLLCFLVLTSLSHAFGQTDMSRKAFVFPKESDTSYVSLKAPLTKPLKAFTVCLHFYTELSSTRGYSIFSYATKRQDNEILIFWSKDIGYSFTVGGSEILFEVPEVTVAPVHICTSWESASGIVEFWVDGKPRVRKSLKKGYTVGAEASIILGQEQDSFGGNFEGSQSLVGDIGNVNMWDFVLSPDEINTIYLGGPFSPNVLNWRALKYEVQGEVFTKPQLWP
# B2: Complement factor H-related protein 4 (Homo sapiens), Q92496-1 (parent)
# chain: MLLLINVILTLWVSCANGQEVKPCDFPEIQHGGLYYKSLRRLYFPAAAGQSYSYYCDQNFVTPSGSYWDYIHCTQDGWSPTVPCLRTCSKSDVEIENGFISESSSIYILNEETQYNCKPGYATAEGNSSGSITCLQNGWSTQPICIKFCDMPVFENSRAKSNGMWFKLHDTLDYECYDGYESSYGNTTDSIVCGEDGWSHLPTCYNSSENCGPPPPISNGDTTSFPQKVYLPWSRVEYQCQSYYELQGSKYVTCSNGDWSEPPRCISMKPCEFPEIQHGHLYYENTRRPYFPVATGQSYSYYCDQNFVTPSGSYWDYIHCTQDGWLPTVPCLRTCSKSDIEIENGFISESSSIYILNKEIQYKCKPGYATADGNSSGSITCLQNGWSAQPICIKFCDMPVFENSRAKSNGMRFKLHDTLDYECYDGYEISYGNTTGSIVCGEDGWSHFPTCYNSSEKCGPPPPISNGDTTSFLLKVYVPQSRVEYQCQSYYELQGSNYVTCSNGEWSEPPRCIHPCIITEENMNKNNIQLKGKSDIKYYAKTGDTIEFMCKLGYNANTSVLSFQAVCREGIVEYPRCE
# partner: B1 partner
# Variants of: B1
# Conditions: with crp_human CRP
row,effect of a mutation on the interaction,Variant
1,disrupting interaction strength,E338K

# Variants of: B2
# Conditions: with crp_human CRP
row,Variant,effect of a mutation on the interaction
1,L39A,decreasing interaction strength
2,K37A;S38A;L39A,disrupting interaction strength
3,K37A;R40A;R41A,disrupting interaction strength
4,K37A;S38A,disrupting interaction strength

# The next lines start with the values.
row,effect of a mutation on the interaction,Variant
1,disrupting interaction strength,S38A;L39A
2,decreasing interaction strength,R40A;R41A
3,with no effect,S38A
4,decreasing interaction strength,K37A
5,decreasing interaction strength,Y35A;Y36A

# Variants of: B2
# Conditions: with crp_human CRP
# Remark: another data set of the same source
row,effect of a mutation on the interaction,Variant
1,decreasing interaction strength,S38A;L39A
2,with no effect,L39A
3,disrupting interaction strength,R40A;R41A
4,decreasing interaction strength,S38A
5,disrupting interaction strength,K37A
6,disrupting interaction strength,Y35A;Y36A

# Variants of: B2
# Conditions: with crp_human CRP
# Remark: another data set of the same source
row,effect of a mutation on the interaction,Variant
1,decreasing interaction strength,K37A;R40A;R41A

# Variants of: B2
# Conditions: with crp_human CRP
# Remark: another data set of the same source
row,effect of a mutation on the interaction,Variant
1,decreasing interaction strength,K37E

# Variants of: B2
# Conditions: with crp_human CRP
# Remark: another data set of the same source
row,effect of a mutation on the interaction,Variant
1,increasing interaction strength,E284K

# Source: IntAct's records for PubMed 20042240
